# Data as given in US20110263454A1, “Methods of Identifying Functional Characteristics of Promoters, Transcription Modifying Proteins and Transcription Modulating Agents” (Salk Institute for Biological Studies, priority 2008, published 2011).
# B1: HNF4a: Hepatocyte Nuclear Factor α (NR2A1), cDNA driver (protein, UniProt P41235 1-474, looked up)
# Hepatocyte nuclear factor …: MRLSKTLVDMDMADYSAALDPAYTTLEFENVQVLTMGNDTSPSEGTNLNAPNSLGVSALCAICGDRATGKHYGASSCDGCKGFFRRSVRKNHMYSCRFSRQCVVDKDKRNQCRYCRLKKCFRAGMKKEAVQNERDRISTRRSSYEDSSLPSINALLQAEVLSRQITSPVSGINGDIRAKKIASIADVCESMKEQLLVLVEWAKYIPAFCELPLDDQVALLRAHAGEHLLLGATKRSMVFKDVLLLGNDYIVPRHCPELAEMSRVSIRILDELVLPFQELQIDDNEYAYLKAIIFFDPDAKGLSDPGKIKRLRSQVQVSLEDYINDRQYDSRGRFGELLLLLPTLQSITWQMIEQIQFIKLFGMAKIDNLLQEMLLGGSPSDAPHAHHPLHPHLMQEHMGTNVIVANTMPTHLSNGQMCEWPRPRGQAATPETPQPSPPGGSGSEPYKLLPGAVATIVKPLSAIPQPTITKQEVI
# B2: RORa: RAR-related Orphan Receptor α (NR1F1), cDNA driver (protein, UniProt P35398 1-523, looked up)
# Nuclear receptor ROR-alpha: MESAPAAPDPAASEPGSSGADAAAGSRETPLNQESARKSEPPAPVRRQSYSSTSRGISVTKKTHTSQIEIIPCKICGDKSSGIHYGVITCEGCKGFFRRSQQSNATYSCPRQKNCLIDRTSRNRCQHCRLQKCLAVGMSRDAVKFGRMSKKQRDSLYAEVQKHRMQQQQRDHQQQPGEAEPLTPTYNISANGLTELHDDLSNYIDGHTPEGSKADSAVSSFYLDIQPSPDQSGLDINGIKPEPICDYTPASGFFPYCSFTNGETSPTVSMAELEHLAQNISKSHLETCQYLREELQQITWQTFLQEEIENYQNKQREVMWQLCAIKITEAIQYVVEFAKRIDGFMELCQNDQIVLLKAGSLEVVFIRMCRAFDSQNNTVYFDGKYASPDVFKSLGCEDFISFVFEFGKSLCSMHLTEDEIALFSAFVLMSADRSWLQEKVKIEKLQQKIQLALQHVLQKNHREDGILTKLICKVSTLRALCGRHTEKLMAFKAIYPDIVRLHFPPLYKELFTSEFEPAMQIDG
# B3: LXRb: Liver X Receptor β (NR1H2), cDNA driver (protein, UniProt P55055 1-460, looked up)
# Oxysterols receptor LXR-beta: MSSPTTSSLDTPLPGNGPPQPGAPSSSPTVKEEGPEPWPGGPDPDVPGTDEASSACSTDWVIPDPEEEPERKRKKGPAPKMLGHELCRVCGDKASGFHYNVLSCEGCKGFFRRSVVRGGARRYACRGGGTCQMDAFMRRKCQQCRLRKCKEAGMREQCVLSEEQIRKKKIRKQQQESQSQSQSPVGPQGSSSSASGPGASPGGSEAGSQGSGEGEGVQLTAAQELMIQQLVAAQLQCNKRSFSDQPKVTPWPLGADPQSRDARQQRFAHFTELAIISVQEIVDFAKQVPGFLQLGREDQIALLKASTIEIMLLETARRYNHETECITFLKDFTYSKDDFHRAGLQVEFINPIFEFSRAMRRLGLDDAEYALLIAINIFSADRPNVQEPGRVEALQQPYVEALLSYTRIKRPQDQLRFPRMLMKLVSLRTLSSVHSEQVFALRLQDKKLPPLLSEIWDVHE
# Key:
# hMDR1 promoter = assay: NHR-promoter luciferase screen, hMDR1 promoter; format: cell-based, human; settings: for Luc. act., normalized to lacZ / Normalized Luc. act., normalized to control: MDR1 promoter, HR/ligand component; for hMDR1 promoter reporter activity: transcription factor +/- ligand, control = 1.00
# Method: (§1) The use, feasibility, and reproducibility of the functional NHR-promoter screen in a 48-well format have been tested validated. Briefly, there were co-expressed 50 ng of each NHR/NHR homodimer or NHR/RXR heterodimer with 100 ng promoter/luciferase construct and 50 ng of LacZ (as a control for transfection efficiency) in CV-1 cells using Fugene HD (Roche) as a transfection reagent (alternatively or additionally, a CMV-YFP construct can be used as a transfection control). Each of the nuclear hormone receptors that were used in these experiments was cloned into a pcDNA3.1 vector and comprised a C-terminally linked V5H6 tag. Twenty-four hours after transfection, appropriate ligands were added, where applicable, (see Table 5 for various ligands and concentrations and after 48 hrs, samples were assayed for luciferase and LacZ activity. To measure for luciferase activity 15 ul of sample was added to 30 ul of luciferase buffer (20 mM tricine, 1.07 mM MgCarbonate, 2.67 mM MgSulfate, 0.1 mM Naz-EDTA, 5 mM DTT, 5 mM ATP, 0.15 mg/ml CoA, 0.5 mM Luciferin), mixed briefly, and run in a Perkin Elmer Victor 5 luminometer. Thus, the functional NHR-promoter screen was used to observe the transcriptional activity of 29 promoters from various physiological pathways including inflammation, lipid and sugar metabolism, cholesterol transport, xenobiotic metabolism, and circadian rhythm.
# (§2) The promoters that facilitate transcription of the indicated gene products that were tested using the protocols described herein are listed in the first row of the table. The nuclear hormone receptors and, where applicable, ligands that were assayed for their transcriptional effects on the promoters are listed in the first column of the table. The data represent the luciferase activity of each sample normalized to both the lacZ activity of that sample and to a control, e.g., no NHR or ligand, as customary in the art. As described previously, these normalizations allow the transcriptional activity of each reporter cell to be compared to other samples.
# (§3) Tables 7-40 show the transcriptional effects of the hormone receptors, and, where applicable, ligands (orphan receptors are screened without ligand), on each individual promoter. […] The control data of each table are shown in their last rows.
# hG6PD promoter = assay: NHR-promoter luciferase screen, hG6PD promoter; format: cell-based, human; settings: for Luc. act., normalized to lacZ / Normalized Luc. act., normalized to control: G6PD promoter reporter, co-transfected HR, without or with its ligand; for Normalized Luc. act., normalized to control: relative to control; for luciferase activity normalized to lacZ activity and to a control, hG6PD: hG6PD promoter-luciferase, CV-1 cells, NHR +/- ligand, control = 1.00
# Method: as §1, §2, §3
# hPPARg2 promoter = assay: NHR-promoter luciferase screen, hPPARg2 promoter; format: cell-based, human; settings: for Luc. act., normalized to lacZ / Normalized Luc. act., normalized to control: PPARG2 promoter, hormone receptor with or without its ligand; for Normalized Luc. act., normalized to control: relative to control; for Results of assays of transcription factor (+/- ligand) with hPPARg2: Table 6d, luciferase activity relative to control (control = 1.00)
# Method: as §1, §2, §3
# mGhrelin promoter = assay: NHR-promoter luciferase screen, mGhrelin promoter; format: cell-based, mouse; settings: for Luc. act., normalized to lacZ / Normalized Luc. act., normalized to control: Table 8, mGhrelin; for Results of assays of transcription factor (+/- ligand) with mGhrelin: Table 6d, luciferase activity relative to control (control = 1.00)
# Method: as §1, §2, §3
# mLeptin promoter = assay: NHR-promoter luciferase screen, mLeptin promoter; format: cell-based, mouse; settings: for Luc. act., normalized to lacZ / Normalized Luc. act., normalized to control: Table 7, mLeptin; for Results of assays of transcription factor (+/- ligand) with mLeptin: Table 6d, luciferase activity relative to control (control = 1.00)
# Method: as §1, §2, §3
# hMyoD promoter = assay: NHR-promoter luciferase screen, hMyoD promoter; format: cell-based, human; settings: for Luc. act., normalized to lacZ / Normalized Luc. act., normalized to control: MyoD promoter reporter, co-transfected HR, without or with its ligand; for Normalized Luc. act., normalized to control: relative to control; for luciferase activity normalized to lacZ activity and to a control, hMyoD: hMyoD promoter-luciferase, CV-1 cells, NHR +/- ligand, control = 1.00
# Method: as §1, §2, §3
Molecule,"Luc. act., normalized to lacZ (hMDR1 promoter)","Normalized Luc. act., normalized to control (hMDR1 promoter)",hMDR1 promoter reporter activity (hMDR1 promoter),"Luc. act., normalized to lacZ (hG6PD promoter)","Normalized Luc. act., normalized to control (hG6PD promoter)","luciferase activity normalized to lacZ activity and to a control, hG6PD (hG6PD promoter)","Luc. act., normalized to lacZ (hPPARg2 promoter)","Normalized Luc. act., normalized to control (hPPARg2 promoter)",Results of assays of transcription factor (+/- ligand) with hPPARg2 (hPPARg2 promoter),"Luc. act., normalized to lacZ (mGhrelin promoter)","Normalized Luc. act., normalized to control (mGhrelin promoter)",Results of assays of transcription factor (+/- ligand) with mGhrelin (mGhrelin promoter),"Luc. act., normalized to lacZ (mLeptin promoter)","Normalized Luc. act., normalized to control (mLeptin promoter)",Results of assays of transcription factor (+/- ligand) with mLeptin (mLeptin promoter),"Luc. act., normalized to lacZ (hMyoD promoter)","Normalized Luc. act., normalized to control (hMyoD promoter)","luciferase activity normalized to lacZ activity and to a control, hMyoD (hMyoD promoter)"
"TLX: Tailless (homolog of drosophila) (NR2E1), cDNA driver",0.2,0.7,0.70,107.9,2.9,2.89,0.9,0.4,0.43,86.6,1.7,1.66,2.6,0.9,0.89,31.3,0.5,0.49
"VDR: Vitamin D Receptor (NR1I1), cDNA driver",0.3,0.9,0.90,43.1,1.2,1.15,2.1,1.0,1.03,76.6,1.5,1.47,2.6,0.9,0.90,52.8,0.8,0.83
B1,0.2,0.8,0.77,34.8,0.9,0.93,2.0,1.0,1.02,42.6,0.8,0.82,2.5,0.8,0.84,65.5,1.0,1.03
B2,0.1,0.3,0.32,74.0,2.0,1.98,8.4,4.2,4.19,46.6,0.9,0.89,2.1,0.7,0.71,47.3,0.7,0.75
B3,0.2,0.8,0.78,46.8,1.3,1.25,2.4,1.2,1.19,46.7,0.9,0.89,2.4,0.8,0.81,54.6,0.9,0.86
